T1: IL-6Rα on HEK-Blue IL-6 cells (human, UniProt P08887 20-468)
T1 sequence (looked up): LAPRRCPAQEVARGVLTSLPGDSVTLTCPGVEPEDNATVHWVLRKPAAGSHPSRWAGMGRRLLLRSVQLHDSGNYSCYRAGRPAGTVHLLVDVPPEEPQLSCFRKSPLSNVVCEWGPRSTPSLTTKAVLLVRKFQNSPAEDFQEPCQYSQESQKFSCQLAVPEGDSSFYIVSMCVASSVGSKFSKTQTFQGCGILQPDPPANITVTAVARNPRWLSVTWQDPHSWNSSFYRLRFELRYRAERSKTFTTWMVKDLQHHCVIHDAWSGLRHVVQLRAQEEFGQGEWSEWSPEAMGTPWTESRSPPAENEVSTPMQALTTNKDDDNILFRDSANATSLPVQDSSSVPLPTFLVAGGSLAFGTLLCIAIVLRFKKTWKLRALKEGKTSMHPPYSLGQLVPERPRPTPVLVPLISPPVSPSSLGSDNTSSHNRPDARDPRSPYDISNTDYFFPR

T2: gp130 on HEK-Blue IL-6 cells (human, UniProt P40189 23-918)
T2 sequence: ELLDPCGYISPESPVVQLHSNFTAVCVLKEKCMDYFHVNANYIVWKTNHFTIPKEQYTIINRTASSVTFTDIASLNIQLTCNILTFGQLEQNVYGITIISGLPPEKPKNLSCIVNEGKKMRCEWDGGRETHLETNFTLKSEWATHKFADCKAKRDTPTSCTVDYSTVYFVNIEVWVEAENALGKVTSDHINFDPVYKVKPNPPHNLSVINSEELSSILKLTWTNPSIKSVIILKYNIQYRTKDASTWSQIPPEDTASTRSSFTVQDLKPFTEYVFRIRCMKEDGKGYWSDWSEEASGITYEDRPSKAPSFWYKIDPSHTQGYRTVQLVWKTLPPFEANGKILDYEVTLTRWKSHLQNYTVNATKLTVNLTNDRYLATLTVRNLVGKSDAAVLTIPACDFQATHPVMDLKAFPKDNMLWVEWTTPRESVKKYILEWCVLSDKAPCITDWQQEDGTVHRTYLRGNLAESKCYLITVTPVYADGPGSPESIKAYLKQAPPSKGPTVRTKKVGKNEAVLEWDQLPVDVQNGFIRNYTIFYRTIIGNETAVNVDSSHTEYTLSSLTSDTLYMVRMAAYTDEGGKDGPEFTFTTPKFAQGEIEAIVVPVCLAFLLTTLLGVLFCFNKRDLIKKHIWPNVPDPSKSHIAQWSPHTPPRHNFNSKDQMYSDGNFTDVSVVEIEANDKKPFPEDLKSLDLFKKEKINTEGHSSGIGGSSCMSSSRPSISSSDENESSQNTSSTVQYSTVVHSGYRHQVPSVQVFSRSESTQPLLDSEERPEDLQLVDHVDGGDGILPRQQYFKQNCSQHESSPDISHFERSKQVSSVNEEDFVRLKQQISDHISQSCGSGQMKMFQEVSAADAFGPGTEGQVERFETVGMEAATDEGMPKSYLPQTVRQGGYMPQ


Legend:
[1] = biological target: T1, IL-6Rα on HEK-Blue IL-6 cells; experiment: cell-based or functional assay
[2] = biological target: T2, gp130 on HEK-Blue IL-6 cells; experiment: cell-based or functional assay

Row | EC50, IL-6-induced SEAP reporter in HEK-Blue IL-6 cells (agonist activity) [1] [pM] | EC50, IL-6-induced SEAP reporter in HEK-Blue IL-6 cells (agonist activity) [2] [pM] | Molecule
1 | 1 |  | IL-6 (from UniProt P05231 30-212) (ligand)
2 | ~0.6 | ~0.6 | RDB1503 (ligand) QNQWLQDMTTHLILRSFKEFLQSSLRALRQMSGGSGGGSSERIDKQIRYILDGISALRKETCNKSNMCESSKEALAENNLNLPKMAEKDGCFQSGFNEETCLVKIITGLLEFEVYLEYLQNRFESSEEQARAVQMSTKVLIQFLQKKAKNLDAITTPDPTTNASLLTKLQ

From US20130336924A1 (ALKERMES, published 2013)
